Assay [1] concerns the target T1, PSMA Fab (biotinylated (site not stated)).
T1 construct: Biotinylated PSMA Fab captured on neutravidin plates for the clonal phage ELISA; also called Anti-PSMA Fab; 006 PSMA Fab
Description: clonal phage ELISA on captured PSMA Fab pre-incubated with PSMA antigen as competitor, anti-M13 HRP detection.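 Note: crude clonal phage supernatants tested by ELISA, wells first treated with blocking buffer plus PSMA antigen, bound phage read out via HRP-linked anti-M13 antibody.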 In general terms: ELISA stands for enzyme-linked immunosorbent assay.

Assay [2] addresses T1, PSMA Fab. Description: clonal phage ELISA on biotinylated PSMA Fab captured on neutravidin, blocking buffer alone, anti-M13 HRP detection.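 Note: clonal phage were tested as crude supernatants, and the signal reflects phage still bound to the wells after washing.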
Description: (§1) Clonal phage were harvested as crude supernatants and screened via standard ELISAs. […] Prior to the addition of clonal phage. wells were incubated with blocking buffer and PSMA antigen or blocking buffer alone. Without washing or aspirating, clonal phage supernatants were then added to the wells and incubated for a short time. Wells were then washed followed by detection of bound phage using a horse radish conjugated anti-M13 antibody.
The target of assay [3] is T2, anti-CD28 Fab (SEQ ID NOs: 696, 697).
T2 construct: In the phage ELISA the Fab was biotinylated and captured on neutravidin coated plates
T2 sequence (VH, as listed by the source, chain 1 of 2): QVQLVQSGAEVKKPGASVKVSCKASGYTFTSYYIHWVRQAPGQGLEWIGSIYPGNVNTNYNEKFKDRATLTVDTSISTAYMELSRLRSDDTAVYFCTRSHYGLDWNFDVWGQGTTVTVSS
T2 sequence (VL, as listed by the source, chain 2 of 2): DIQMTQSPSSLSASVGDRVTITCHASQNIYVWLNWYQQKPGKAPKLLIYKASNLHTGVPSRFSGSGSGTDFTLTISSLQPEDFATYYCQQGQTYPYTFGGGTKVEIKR
Description: phage ELISA; biotinylated anti-CD28 Fab on neutravidin plate, wells pre-incubated with CD28 antigen as competitor, anti-M13 HRP detection.
Description: (§2) After panning, phage infected bacteria were plated out and colonies picked into 96 well blocks. Clonal phage was then amplified and separated from bacterial cells via centrifugation.
(§3) Clonal phage were harvested as crude supematants and screened via standard ELISAs. […] Prior to the addition of clonal phage, wells were incubated with blocking buffer and CD28 antigen or blocking buffer alone. Without washing or aspirating, clonal phage supematants were then added to the wells and incubated for a short time. Wells were then washed followed by detection of bound phage using a horse radish conjugated anti-M13 antibody. Clonal phage of interest were then sent for sequence analysis.

For assay [4] the target is unchanged. The assay can be described thus: phage ELISA; biotinylated anti-CD28 Fab on neutravidin plate, clonal phage supernatant, anti-M13 HRP detection.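 Note: crude supernatants of single phage clones picked after panning were screened for binding.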
Assay [5] has as its target T3, Anti-PSMA Fab (biotinylated (site not stated)).
T3 construct: Biotinylated PSMA Fab captured on neutravidin plates in the phage ELISA; also called 006 PSMA Fab
Description: clonal phage ELISA on captured biotinylated PSMA Fab pre-incubated with PSMA antigen as competitor, anti-M13 HRP detection.

The target in assay [6] is T3, Anti-PSMA Fab. The assay can be described thus: clonal phage ELISA on captured biotinylated PSMA Fab, anti-M13 HRP detection.
Description: as §1
Assay [7] addresses Anti-CD28 Fab (SEQ ID NOs: 696, 697). Description: phage binding ELISA on captured anti-CD28 Fab pre-incubated with CD28 antigen as competitor.
Description: as §2, §3
Assay [8] shares this target. Description: phage binding ELISA; biotinylated anti-CD28 Fab captured on neutravidin plate, clonal phage supernatant, anti-M13 HRP detection.
Description: as §2, §3

These results are taken from patent US20260242478A1 (published 2026).

Anti-CD28 Fab (SEQ ID NOs: 696, 697), sequence (VH, as listed by the source, chain 1 of 2): as the sequence (VH, as listed by the source, chain 1 of 2) above
Anti-CD28 Fab (SEQ ID NOs: 696, 697), sequence (VL, as listed by the source, chain 2 of 2): as the sequence (VL, as listed by the source, chain 2 of 2) above

B1: Phage-3977 (peptide)
peptide: DARMCIPMWMCQAF
As for B1, the “Phage binding ELISA signal, Anti-PSMA Fab in presence of PSMA antigen” value (shortened to “Phage binding ELISA signal … of PSMA antigen”) in assay [1] worked out at 0.0713. The “Phage binding ELISA signal, Anti-PSMA Fab” value in assay [2] was determined as 0.742.

B2: Phage-476 (peptide)
peptide: YCMGHSHEHIWKCL
notes: also called Peptide-97
B2: in assay [3], the “Phage binding ELISA, Anti-CD28 Fab signal in the presence of CD28” value was determined as 0.07. Moreover, in assay [4], the “Phage binding ELISA, Anti-CD28 Fab (SEQ ID NOs: 696, 697) signal” value was found to be 0.87.

B3: Phage-477 (peptide)
peptide: YCAGHSHEYLAKCE
notes: also called Peptide-98
Turning to B3, the “Phage binding ELISA, Anti-CD28 Fab signal in the presence of CD28” value in assay [3] came to 0.06. In addition, the “Phage binding ELISA, Anti-CD28 Fab (SEQ ID NOs: 696, 697) signal” value in assay [4] was 0.86.

B4: Phage-472 (peptide)
peptide: DCPWLSGFSRPLLC
notes: also called Peptide-93
As to B4, the “Phage binding ELISA, Anti-CD28 Fab signal in the presence of CD28” value in assay [3] was found to be 0.07. The “Phage binding ELISA, Anti-CD28 Fab (SEQ ID NOs: 696, 697) signal” value in assay [4] worked out at 1.27.

B5: Phage-475 (peptide)
peptide: YCAGHTEEHYVKCM
notes: also called Peptide-96
As for B5, in assay [3], the “Phage binding ELISA, Anti-CD28 Fab signal in the presence of CD28” value was determined as 0.07. In addition, the “Phage binding ELISA, Anti-CD28 Fab (SEQ ID NOs: 696, 697) signal” value in assay [4] was 0.62.

B6: Phage-3992 (peptide)
peptide: VFKMCVPMWMCQVS
For B6, the “Phage binding ELISA signal … of PSMA antigen” value in assay [5] is 0.0687. Moreover, the “Phage binding ELISA signal, Anti-PSMA Fab” value in assay [6] is 0.635.

B7: Phage-503 (peptide, not shown: large carriers)
peptide: YCDGHLPEYMEKCL
notes: Clonal phage supernatant of the Peptide-87 optimisation library
Turning to B7, in assay [7], the “Anti-CD28 Fab signal in the presence of CD28 (phage binding ELISA)” value is 0.1. Further, the “Anti-CD28 Fab signal (phage binding ELISA)” value in assay [8] is 2.44.

B8: Phage-500 (peptide, not shown: large carriers)
peptide: YCDGHLPQYMEKCL
notes: as for B7
In the case of B8, in assay [7], the “Anti-CD28 Fab signal in the presence of CD28 (phage binding ELISA)” value was 0.11. For the same molecule, the “Anti-CD28 Fab signal (phage binding ELISA)” value in assay [8] turned out to be 2.47.

B9: Phage-3984 (peptide)
peptide: KHILCEPVWMCVGF
As to B9, the “Phage binding ELISA signal … of PSMA antigen” value in assay [5] was 0.0708. Also, the “Phage binding ELISA signal, Anti-PSMA Fab” value in assay [6] amounted to 0.697.

B10: Phage-3978 (peptide)
peptide: GFRTCVPSWMCTGF
With B10, the “Phage binding ELISA signal … of PSMA antigen” value in assay [1] was determined as 0.0906. For the same molecule, the “Phage binding ELISA signal, Anti-PSMA Fab” value in assay [2] came to 0.734.

B11: Phage-3975 (peptide)
peptide: EAKWCTPQWMCGGF
On to B11, for which, in assay [1], the “Phage binding ELISA signal … of PSMA antigen” value turned out to be 0.0703. Further, in assay [2], the “Phage binding ELISA signal, Anti-PSMA Fab” value amounted to 0.756.

B12: Phage-3994 (peptide)
peptide: EWPICRPSWMCDDF
With B12, the “Phage binding ELISA signal … of PSMA antigen” value in assay [5] amounted to 0.0604. For the same molecule, in assay [6], the “Phage binding ELISA signal, Anti-PSMA Fab” value is 0.63.

B13: Phage-481 (peptide)
peptide: YCEGHLPEYIEKCL
notes: also called Peptide-120
As to B13, the “Phage binding ELISA, Anti-CD28 Fab signal in the presence of CD28” value in assay [3] amounted to 0.08. The “Phage binding ELISA, Anti-CD28 Fab (SEQ ID NOs: 696, 697) signal” value in assay [4] stood at 2.06.

B14: Phage-473 (peptide)
peptide: YCAGMSTIQLWLKC
notes: also called Peptide-94
Turning to B14, the “Phage binding ELISA, Anti-CD28 Fab signal in the presence of CD28” value in assay [3] was 0.09. Also, in assay [4], the “Phage binding ELISA, Anti-CD28 Fab (SEQ ID NOs: 696, 697) signal” value worked out at 2.16.

B15: Phage-3976 (peptide)
peptide: PAQICMPAWMCHGF
Take B15: in assay [1], the “Phage binding ELISA signal … of PSMA antigen” value worked out at 0.0646. In addition, in assay [2], the “Phage binding ELISA signal, Anti-PSMA Fab” value was found to be 0.754.

B16: Phage-474 (peptide)
peptide: YCAGHMPQYEVKCL
notes: also called Peptide-95
With B16, the “Phage binding ELISA, Anti-CD28 Fab signal in the presence of CD28” value in assay [3] was 0.06. The “Phage binding ELISA, Anti-CD28 Fab (SEQ ID NOs: 696, 697) signal” value in assay [4] stood at 0.22.

B17: Phage-3980 (peptide)
peptide: EYRECVPDWMCSGF
As to B17, the “Phage binding ELISA signal … of PSMA antigen” value in assay [1] turned out to be 0.0722. Further, in assay [2], the “Phage binding ELISA signal, Anti-PSMA Fab” value came out at 0.731.

B18: Phage-3990 (peptide)
peptide: LLIVCKPPWMCAGS
As to B18, the “Phage binding ELISA signal … of PSMA antigen” value in assay [5] was 0.0992. Moreover, the “Phage binding ELISA signal, Anti-PSMA Fab” value in assay [6] is 0.666.

B19: Phage-3979 (peptide)
peptide: LSVECIPVWMCNGF
As to B19, the “Phage binding ELISA signal … of PSMA antigen” value in assay [1] was 0.0832. Also, the “Phage binding ELISA signal, Anti-PSMA Fab” value in assay [2] came to 0.732.

B20: Phage-480 (peptide)
peptide: YCEGHEGIYFWKCL
Regarding B20, the “Phage binding ELISA, Anti-CD28 Fab signal in the presence of CD28” value in assay [3] worked out at 0.06. In addition, the “Phage binding ELISA, Anti-CD28 Fab (SEQ ID NOs: 696, 697) signal” value in assay [4] is 2.07.

B21: Phage-3983 (peptide)
peptide: YERMCSPEWMCWDF
With B21, the “Phage binding ELISA signal … of PSMA antigen” value in assay [5] amounted to 0.0861. The “Phage binding ELISA signal, Anti-PSMA Fab” value in assay [6] is 0.704.

B22: Phage-3991 (peptide)
peptide: SVMNCVPLRMCEGF
For B22, the “Phage binding ELISA signal … of PSMA antigen” value in assay [5] came out at 0.0968. Also, the “Phage binding ELISA signal, Anti-PSMA Fab” value in assay [6] turned out to be 0.644.

B23: Phage-3974 (peptide)
peptide: QQVRCVPDWMCSGF
As to B23, the “Phage binding ELISA signal … of PSMA antigen” value in assay [1] is 0.0755. Also, the “Phage binding ELISA signal, Anti-PSMA Fab” value in assay [2] came out at 0.762.

B24: Phage-3985 (peptide)
peptide: VENLCRPSWMCEGF
Regarding B24, in assay [5], the “Phage binding ELISA signal … of PSMA antigen” value was 0.112. Further, in assay [6], the “Phage binding ELISA signal, Anti-PSMA Fab” value is 0.696.

B25: Phage-482 (peptide)
peptide: YCEGHAPEYIAKCL
On to B25, for which the “Phage binding ELISA, Anti-CD28 Fab signal in the presence of CD28” value in assay [3] was found to be 0.09. Besides, the “Phage binding ELISA, Anti-CD28 Fab (SEQ ID NOs: 696, 697) signal” value in assay [4] amounted to 2.15.

B26: Phage-483 (peptide)
peptide: YCEGHAPEYIRKCL
For B26, in assay [3], the “Phage binding ELISA, Anti-CD28 Fab signal in the presence of CD28” value came out at 0.08. Moreover, the “Phage binding ELISA, Anti-CD28 Fab (SEQ ID NOs: 696, 697) signal” value in assay [4] came out at 1.63.

B27: Phage-484 (peptide)
peptide: YCEGHAPEYIWKCL
In the case of B27, the “Phage binding ELISA, Anti-CD28 Fab signal in the presence of CD28” value in assay [3] came out at 0.07. Moreover, the “Phage binding ELISA, Anti-CD28 Fab (SEQ ID NOs: 696, 697) signal” value in assay [4] came to 1.63.

B28: Phage-3989 (peptide)
peptide: MTDRCKPEWMCFGF
Regarding B28, the “Phage binding ELISA signal … of PSMA antigen” value in assay [5] stood at 0.142. For the same molecule, in assay [6], the “Phage binding ELISA signal, Anti-PSMA Fab” value is 0.677.

B29: Phage-478 (peptide)
peptide: YCEGHSPEYILKCL
Take B29: the “Phage binding ELISA, Anti-CD28 Fab signal in the presence of CD28” value in assay [3] was 0.06. Moreover, the “Phage binding ELISA, Anti-CD28 Fab (SEQ ID NOs: 696, 697) signal” value in assay [4] was 1.75.

B30: Phage-479 (peptide)
peptide: YCEGHRPEYILKCL
Consider B30, for which the “Phage binding ELISA, Anti-CD28 Fab signal in the presence of CD28” value in assay [3] was found to be 0.06. Besides, the “Phage binding ELISA, Anti-CD28 Fab (SEQ ID NOs: 696, 697) signal” value in assay [4] was determined as 1.27.

B31: Phage-485 (peptide)
peptide: YCEGHSQENIWKCL
For the molecule B31, the “Phage binding ELISA, Anti-CD28 Fab signal in the presence of CD28” value in assay [3] came to 0.07. Further, in assay [4], the “Phage binding ELISA, Anti-CD28 Fab (SEQ ID NOs: 696, 697) signal” value came out at 1.41.

B32: Phage-3988 (peptide)
peptide: STPYCVPDWMCAGF
As for B32, in assay [5], the “Phage binding ELISA signal … of PSMA antigen” value was 0.0729. In addition, in assay [6], the “Phage binding ELISA signal, Anti-PSMA Fab” value amounted to 0.683.

B33: Phage-3973 (peptide)
peptide: QMSMCKPAWMCTGL
B33: the “Phage binding ELISA signal … of PSMA antigen” value in assay [1] turned out to be 0.0909. The “Phage binding ELISA signal, Anti-PSMA Fab” value in assay [2] turned out to be 0.767.

B34: Phage-3986 (peptide)
peptide: NGPMCVPQWMCDGT
In the case of B34, the “Phage binding ELISA signal … of PSMA antigen” value in assay [5] was found to be 0.0558. Further, the “Phage binding ELISA signal, Anti-PSMA Fab” value in assay [6] worked out at 0.691.

B35: Phage-3987 (peptide)
peptide: HVQRCVPQWMCVGF
Consider B35, for which, in assay [5], the “Phage binding ELISA signal … of PSMA antigen” value came to 0.119. For the same molecule, the “Phage binding ELISA signal, Anti-PSMA Fab” value in assay [6] amounted to 0.686.

B36: Phage-3993 (peptide)
peptide: IAVKCMPAWMCVGI
Turning to B36, in assay [5], the “Phage binding ELISA signal … of PSMA antigen” value is 0.0897. In assay [6], the “Phage binding ELISA signal, Anti-PSMA Fab” value turned out to be 0.632.

B37: Phage-3982 (peptide)
peptide: SYQLCKPEWMCHGW
As to B37, in assay [5], the “Phage binding ELISA signal … of PSMA antigen” value worked out at 0.0692. Besides, the “Phage binding ELISA signal, Anti-PSMA Fab” value in assay [6] was 0.715.

B38: Phage-3981 (peptide)
peptide: VVVQCIPEWMCNGF
B38: in assay [5], the “Phage binding ELISA signal … of PSMA antigen” value was determined as 0.0683. Besides, the “Phage binding ELISA signal, Anti-PSMA Fab” value in assay [6] was 0.729.
